Patent publication US20230391882A1 (NUMAB THERAPEUTICS, published 2023)
Positions count from the first letter of the chain named.

B1: PRO2566 (MATCH4) (other)
chain 1: AFELTQSPSSLSASVGDRVTITCQASESINSRLAWYQQKPGQPPKLLIYDASDLTSGVPSRFSGSGSGTDFTLTISSLQPEDFATYYCQGYGGSSTTTFGTGTKLTVLGGGGGSGGGGSGGGGSGGGGSEVQLVESGGGLVQPGGSLRLSCAASGFSLSSYAMNWVRQAPGKGLEWIGHINAGDIAYYATWAKGRFTISRDNSKNTVYLQMNSLRAEDTAVYFCARGAGGFSTGPFKLWGQGTLVTVSSGGGGSGGGGSEVQLVESGGGLVQPGGSLRLSCAASGFSLSSYDMSWVRQAPGKGLAWIGASYASGPTYYASWAKGRFTISRDNSKNTVYLQMNSLRAEDTATYFCARGGWTGTSHSNIWGQGTLVTVSSGGGSGGGSGGGSGQSQLVESGGGLVQPGGSLRLSCAVSGFSLSSYAMGWVRQAPGKCLEYIGYISKIGTTYYASWAKGRFTISKDNSKNTVYLQMNSLRAEDTAVYFCARGSSSGGYLDDGFDPWGQGTLVTVSS
chain 2: ALQMTQSPSSLSARVGDRVTIKCQASQSISNYLAWYQQKPGKPPKFLIYDASDLASGVPSRFSGSGSGRDFTLTISSLQPEDFATYYCQQVYDSNNVENVFGCGTKVTVLGGGGGSGGGGSGGGGSGGGGSQSQLVESGGGLVQPGGSLRLSCAVSGFSLSSYAMGWVRQAPGKCLEYIGYISKIGTTYYASWAKGRFTISKDNSKNTVYLQMNSLRAEDTAVYFCARGSSSGGYLDDGFDPWGQGTLVTVSSGGGGSGGGGSALQMTQSPSSLSARVGDRVTIKCQASQSISNYLAWYQQKPGKPPKFLIYDASDLASGVPSRFSGSGSGRDFTLTISSLQPEDFATYYCQQVYDSNNVENVFGCGTKVTVLGGGSGGSGGSGGSGDIQMTQSPSSLSASVGDRVTITCQSSQSVFSNNYLAWFQQKPGQSPKRLIYSASTLASGVPSRFSGSGSGTDFTLTISSLQPEDFATYYCLGSYACSSADCYVFGTGTKVTVLG
B2: PRO2567 (MATCH4) (other)
chain 1: B1 chain 1
chain 2: ALQMTQSPSSLSARVGDRVTIKCQASQSISNYLAWYQQKPGKPPKFLIYDASDLASGVPSRFSGSGSGRDFTLTISSLQPEDFATYYCQQVYDSNNVENVFGCGTKVTVLGGGGGSGGGGSGGGGSGGGGSQSQLVESGGGLVQPGGSLRLSCAVSGFSLSSYAMGWVRQAPGKCLEYIGYISKIGTTYYASWAKGRFTISKDNSKNTVYLQMNSLRAEDTAVYFCARGSSSGGYLDDGFDPWGQGTLVTVSSGGGGSGGGGSALQMTQSPSSLSARVGDRVTIKCQASQSISNYLAWYQQKPGKPPKFLIYDASDLASGVPSRFSGSGSGRDFTLTISSLQPEDFATYYCQQVYDSNNVENVFGCGTKVTVLGGGSGGSDIQMTQSPSSLSASVGDRVTITCQSSQSVFSNNYLAWFQQKPGQSPKRLIYSASTLASGVPSRFSGSGSGTDFTLTISSLQPEDFATYYCLGSYACSSADCYVFGTGTKVTVLG
B3: PRO2000 (biMSLNlow affinity x CD3 x hSA) (other)
chain 1: DIQMTQSPSSLSASVGDRVTITCQASQNIYSNLAWYQQKPGKAPKLLIYDASDLASGVPSRFSGSGSGTDFTLTISSLQPEDFATYYCQQVRSSSDIDNPFGTGTKVTVLGGGGGSGGGGSGGGGSGGGGSQVQLVESGGGLVQPGGSLRLSCAASGFSLSSYAMGWVRQAPGKGLEWIGYISTINNTYYASWAKGRFTISRDNSKNTVYLQMNSLRAEDTAVYYCAREIRSGWVDYGFSIWGQGTLVTVSSGGGGSGGGGSEVQLVESGGGLVQPGGSLRLSCAASGFSLSSYDMSWVRQAPGKGLAWIGASYASGPTYYASWAKGRFTISRDNSKNTVYLQMNSLRAEDTATYFCARGGWTGTSHSNIWGQGTLVTVSSGGGSGGGSEVQLVESGGGLVQPGGSLRLSCAASGFSFSSSYWICWVRQAPGKCLEWVGCVFTGDGTTYYASWAKGRFTISRDNSKNTVYLQMNSLRAEDTATYFCARPVSVYYYGMDLWGQGTLVTVSS
chain 2: DIQMTQSPSSLSASVGDRVTITCQASQNIYSNLAWYQQKPGKAPKLLIYDASDLASGVPSRFSGSGSGTDFTLTISSLQPEDFATYYCQQVRSSSDIDNPFGTGTKVTVLGGGGGSGGGGSGGGGSGGGGSQVQLVESGGGLVQPGGSLRLSCAASGFSLSSYAMGWVRQAPGKGLEWIGYISTINNTYYASWAKGRFTISRDNSKNTVYLQMNSLRAEDTAVYYCAREIRSGWVDYGFSIWGQGTLVTVSSGGGGSGGGGSDVVMTQSPSSLSASVGDRVTITCQASQIISSRSAWYQQKPGQPPKLLIYQASKLASGVPSRFSGSGSGTDFTLTISSLQPEDFATYYCQCTYIDSNFGAFGCGTKLTVLGGGSGGSDIQMTQSPSSLSASVGDRVTITCQSSQSVFSNNYLAWFQQKPGQSPKRLIYSASTLASGVPSRFSGSGSGTDFTLTISSLQPEDFATYYCLGSYACSSADCYVFGTGTKVTVLG
B4: PRO2100 (biMSLNlow affinity x CD3 x hSA) (other)
chain 1: B3 chain 1 with N186A
chain 2: B3 chain 2 with N186A
B5: PRO2562 (MATCH4) (other)
chain 1: ALQMTQSPSSLSARVGDRVTIKCQASQSISNYLAWYQQKPGKPPKFLIYDASDLASGVPSRFSGSGSGRDFTLTISSLQPEDFATYYCQQVYDSNNVENVFGCGTKVTVLGGGGGSGGGGSGGGGSGGGGSQSQLVESGGGLVQPGGSLRLSCAVSGFSLSSYAMGWVRQAPGKCLEYIGYISKIGTTYYASWAKGRFTISKDNSKNTVYLQMNSLRAEDTAVYFCARGSSSGGYLDDGFDPWGQGTLVTVSSGGGGSGGGGSEVQLVESGGGLVQPGGSLRLSCAASGFSLSSYDMSWVRQAPGKGLAWIGASYASGPTYYASWAKGRFTISRDNSKNTVYLQMCSLRAEDTATYFCARGGWTGTSHSNIWGQGTLVTVSSGGGSGGGSGGGSGEVQLVESGGGLVQPGGSLRLSCAASGFSLSSYAMNWVRQAPGKCLEWIGHINAGDIAYYATWAKGRFTISRDNSKNTVYLQMNSLRAEDTAVYFCARGAGGFSTGPFKLWGQGTLVTVSS
chain 2: ALQMTQSPSSLSARVGDRVTIKCQASQSISNYLAWYQQKPGKPPKFLIYDASDLASGVPSRFSGSGSGRDFTLTISSLQPEDFATYYCQQVYDSNNVENVFGCGTKVTVLGGGGGSGGGGSGGGGSGGGGSQSQLVESGGGLVQPGGSLRLSCAVSGFSLSSYAMGWVRQAPGKCLEYIGYISKIGTTYYASWAKGRFTISKDNSKNTVYLQMNSLRAEDTAVYFCARGSSSGGYLDDGFDPWGQGTLVTVSSGGGGSGGGGSAFELTQSPSSLSASVGDRVTITCQASESINSRLAWYQQKPGQPPKLLIYDASDLTSGVPSRFSGSGSGTDFTLTISCLQPEDFATYYCQGYGGSSTTTFGCGTKLTVLGGGSGGSGGSGGSGDIQMTQSPSSLSASVGDRVTITCQSSQSVFSNNYLAWFQQKPGQSPKRLIYSASTLASGVPSRFSGSGSGTDFTLTISSLQPEDFATYYCLGSYACSSADCYVFGTGTKVTVLG

Assays:
Experiment in all cases: cell-based or functional assay
[1] = biological target: soluble mesothelin (sMSLN) (UniProt Q13421 296-580, limits assumed)
[2] = biological target: T1, mesothelin (MSLN) on target cells (H226, MeT-5A) (UniProt Q13421 37-598, limits assumed)
[3] = biological target: T1, mesothelin (MSLN) on target cells …; remark: listed apart in the source
[4] = biological target: T1, mesothelin (MSLN) on target cells …; remark: listed apart in the source
[5] = biological target: T1, mesothelin (MSLN) on target cells …; remark: listed apart in the source
[6] = biological target: T1, mesothelin (MSLN) on target cells …; remark: listed apart in the source
[7] = biological target: T1, mesothelin (MSLN) on target cells …; remark: listed apart in the source
[8] = biological target: T1, mesothelin (MSLN) on target cells …; remark: listed apart in the source
[9] = biological target: T1, mesothelin (MSLN) on target cells …; remark: listed apart in the source
[10] = biological target: T1, mesothelin (MSLN) on target cells …; remark: listed apart in the source

EC50 (read off the curve); activated CD8+ cells (CD69+) with H226 cells, with 500 ng/ml sMSLN [3]	EC50 (read off the curve); activated CD8+ cells (CD69+) with H226 cells, without sMSLN [4]	EC50 (read off the curve); activated CD8+ cells (CD69+) with H226 cells, with 50 ng/ml sMSLN [6]	Binder	increase of EC50 for killing high MSLN expressing target cells in the presence of 50 ng/ml sMSLN [1]	increase of EC50 for killing high MSLN expressing target cells in the presence of 500 ng/ml sMSLN [1]	T-cell driven cytotoxicity assay: EC50 for killing high MSLN expressing target cells against EC50 for killing MeT-5A cells [2]	decrease of potency of T-cell driven target cell killing in the presence of 500 ng/ml soluble MSLN [1]	specific killing of high MSLN expressing H226 cells by PBMCs in the presence of human serum albumin; killing potency against that of PRO1872 [2]	EC50 (read off the curve); specific killing of H226 cells, no sMSLN [5]	EC50 (read off the curve); specific killing of MeT-5A cells (low MSLN) [7]	EC50 (read off the curve); specific killing of H226 cells (high MSLN) [8]	EC50 (read off the curve); specific killing of H226 cells, in presence of 500 ng/ml sMSLN [9]	EC50 (read off the curve); specific killing of H226 cells, in presence of 50 ng/ml sMSLN [10]
			B1	≤ 6 fold	≤ 40 fold	≥ 25 fold							
			B2	≤ 6 fold	≤ 40 fold	≥ 25 fold							
~40 pM	~2 pM	~8 pM	B3	≤ 6 fold	≤ 40 fold	≥ 25 fold	17 fold	75 fold	~10 pM	~100 pM	~0.07 pM	~200 pM	~30 pM
			B4				17 fold						
			B5	≤ 6 fold	≤ 40 fold	≥ 25 fold							
